This assay deals with T1, ZIKV envelope protein domain III-hFc fusion protein (ZIKV-DIII-hFc) (Zika virus strain MR766, UniProt Q32ZE1).
T1 chain: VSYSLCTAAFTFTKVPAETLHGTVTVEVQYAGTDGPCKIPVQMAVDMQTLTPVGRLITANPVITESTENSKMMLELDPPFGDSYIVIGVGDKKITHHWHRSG
Briefly: BLI.

B1: m302 IgG1 (antibody, V domains shown)
VH: EVQLVQSGGGLVKPGRSLRLSCAASGFTFSSYAMHWVRQAPGKGLEWVAVISYDGSNKYYADSVKGRFTISRDNSKNTLYLQMNSLRAEDTAVYYCAREIGDYYYYGMDVWGQGTLVTVSS
VL: EIVMTQSPATLSLSPGERATLSCRASQSVSSYLAWYQQKPGQAPRLLIYDASNRATGIPARFSGSGSGTDFTLTISSLQPEDFATYYCQQSYSTPLTFGGGTKVEIK
For the molecule B1, the koff amounted to 0.00177 s⁻¹.
